Where “and” joins values, the source holds several entries; their conditions need not be identical. Equal entries are not always repeated. Where two headings read alike, the source gives them in different places.
Assays:
[1] = tested on: DM1 cells; assay: Cell proliferation assay (CellTiter 96 AQueous), cell growth inhibition after lipofection; format: cell-based, human
Method: Cells seeded at 10^5 cells/mL in 96-well plates were transfected 24 h later with antimiRs as described previously.[20] After 96 h, cell proliferation was measured using the CellTiter 96 AQueous Non-Radioactive Cell Proliferation Assay (Promega, Madison, WI). Absorbance levels were determined using an Infinite M200 PRO plate reader (Tecan, Männedorf, Switzerland) and the TC50 was calculated using non-linear least-squares regression.

[2] = Bodyweight-normalized spleen weight and body weight; format: in vivo, mouse
Text: Mouse handling and experimental procedures followed the European law regarding laboratory animal care and experimentation (2003/65/C.E.) and were approved by Conselleria de Agricultura, […] (reference no. A1539961490857). We used homozygous transgenic HSA^LR (line 20 b) mice,[90] which were kindly provided by Dr Thornton (Rochester, NY) and were housed and bred in our animal facility. […] The mice were randomly allocated to the different treatments as follows: in each cage, each mouse was ear-marked as it was taken out, and each mouse was then assigned to a different treatment. Animals were injected biweekly intravenously with 150 μL of 1× PBS vehicle (controls; […] Mice were sacrificed 45 days after the first injection and the tissues of interest were frozen in liquid nitrogen for the molecular and histological assays. All the mice used in this study ranged from 5 to 5.5 months of age and all were males.

[3] = tested on: Clcn1 exon 7a; assay: Alternative splicing of Clcn1 exon 7a in muscle by RT-PCR (PSI, splice recovery); format: in vivo, mouse; conditions: HSALR mice, individual mice; for Percentage spliced-in (PSI) Clcn1 Gast: 9.2 mg/kg (mean) i.v. x3, day 45, gastrocnemius; for Percentage spliced-in (PSI) Clcn1 Quads: 9.2 mg/kg (mean) i.v. x3, day 45, quadriceps
Method: Total RNA from murine gastrocnemius and quadriceps muscle was isolated using the miRNeasy Mini Kit (QIAGEN, Hilden, Germany) according to the manufacturer’s instructions. One microgram of RNA was digested with DNase I (Invitrogen, Carlsbad, CA) and reverse transcribed with SuperScript II (Invitrogen) using random hexanucleotides. For subsequent PCR reactions, 20 ng of cDNA was used with GoTaq polymerase (Promega). Specific primers were used to analyze the alternative splicing of Nfix, Atp2a1, and Clcn1 in mouse samples (both muscles). Gapdh levels established the endogenous reference levels using 0.2 ng of cDNA. PCR products were separated on a 2% agarose gel and quantified using ImageJ software (NIH, Bethesda, MD). PSR index was defined as value%SI minus X¯%DSI , divided by X¯%DSI minus X¯%HSI (SI, splicing inclusion of each sample; DSI, disease splicing inclusion; HSI, healthy splicing inclusion). Overall, PSR indicates the amount in both muscles analyzed. Primer sequences and exons analyzed are available in Cerro-Herreros et al.[20] In the case of off-targets, interleukins, and muscle regeneration marker Mstn-1, primers sequences are available in Table S5. We used 1 ng of mouse tissue cDNA as a template for multiplex qPCR using the QuantiFast Probe PCR Kit reagent. Commercial TaqMan probes (QIAGEN) were used for mouse (Mbnl1 and Mbnl2; FAM-labeled probes) and reference (GAPDH; MAX-labeled probe) genes. Results were normalized to Gapdh endogenous gene expression.
We used homozygous transgenic HSA^LR (line 20 b) mice,[90] which were kindly provided by Dr Thornton (Rochester, NY) and were housed and bred in our animal facility. Experimental groups were FVB as healthy control and HSA^LR treated with a scrambled ON (SC) and PBS as negative controls, and HSA^LR mice treated with all six experimental CPP-PMOs. The mice were randomly allocated to the different treatments as follows: in each cage, each mouse was ear-marked as it was taken out, and each mouse was then assigned to a different treatment. […] Mice were sacrificed 45 days after the first injection and the tissues of interest were frozen in liquid nitrogen for the molecular and histological assays. All the mice used in this study ranged from 5 to 5.5 months of age and all were males.

[4] = tested on: Mbnl1 protein; assay: Western blot of Mbnl1 in mouse muscle; format: in vivo; design: scale not given here; conditions: HSALR mice, quadriceps, same value given for every mouse of a treatment group
Method: A 96-well plate QDB assay was used[87] to determine MBNL1 protein levels in all replicates and concentrations of each ON tested. This technique allows for high-throughput screening of low protein concentration samples over conventional western blot (WB) (Figure S9).[88] Cell samples (1 μg/well) and mice samples (2 μg/well) were prepared with 4× loading buffer, denatured (100°C for 5 min) and loaded in QDB plates (Quanticision Diagnostics, Research Triangle Park, NC). For the quantification of in vitro samples, the QDB was performed exactly as described in Moreno et al.[87] Each cell sample was loaded in quadruplicate in two different plates; one was used to detect MBNL1 (it was incubated overnight with primary mouse anti-MBNL1 [1:1,000, Abcam, ab77017]) and the other for GAPDH (it was incubated overnight with primary mouse anti-GAPDH [1:500, Santa Cruz, clone G-9]), which was used here as an endogenous control. For Mbnl1 quantification in mouse muscle tissues, we implemented the following modifications: each sample was loaded in quadruplicate on three different plates. One was used to detect Mbnl1 with a mouse MB1a(4A8) antibody (DSHB, Iowa City, IA) using a 1:200 dilution. A second plate was used to quantify tubulin (endogenous normalization control) with a mouse 12G10 antibody (DSHB) using a 1:1,000 dilution. A third plate was used to quantify IgG signal (negative control to subtract background) using an anti-mouse-IgG secondary antibody (Sigma-Aldrich) at 1:3,500 dilution. This subtraction was necessary due to an unspecific IgG signal could be observed in mouse samples (Figures S10A–S10D). All primary antibodies were detected using horseradish peroxidase-conjugated anti-mouse-IgG secondary antibody (1:5,000 for the anti-mouse plate, 1:2,000 for cell plates, and 1:3,500 for mouse plates [Sigma-Aldrich, MO]). Immunoreactive bands were detected using Pierce ECL Western reagent (Thermo Scientific), and luminescence levels were determined using an Infinite M200 PRO plate reader (Tecan). The validity of this correction for QDB quantification of mouse samples was confirmed by performing a series of experiments determining both the window of linearity of the assay (2–5 μg protein, Figures S10A–S10B) and the comparison with data obtained by WB in a subset of samples (Figures S10E–S10H), obtaining a correlation of 0.9927 for MBNL1 and 0.8678 for tubulin (in the case of quadriceps), and 0.9821 for MBNL1 and 0.9699 for tubulin (in gastrocnemius). For WB assay in quadriceps (Figure S10I), samples were loaded in pools of each treatment to have a representative WB of all the treatments tested. WB assay was performed as described previously.[20]

Substance | TC50 [1] [nM] | Weight ([2]; mouse, in vivo, iv, 9.2 mg/kg) | Percentage spliced-in (PSI) Clcn1 Gast [3] | Percentage spliced-in (PSI) Clcn1 Quads [3] | Mbnl1 Quads, WB assay ([4]; western blot) | Mbnl1 Quads, WB assay ([4]; protein) | Weight (g) W.0 ([2]; mouse, in vivo) [g] | Weight (g) W.1 ([2]; mouse, in vivo) [g] | Weight (g) W.2 ([2]; mouse, in vivo) [g] | Weight (g) W.3 ([2]; mouse, in vivo) [g] | Weight (g) W.4 ([2]; mouse, in vivo) [g] | Weight (g) W.5 ([2]; mouse, in vivo) [g] | Weight (g) W.6 ([2]; mouse, in vivo) [g] | TC50 ([1]; toxic concentration 50, DM1 cells transfected 24 h after seeding, read after 96 h, absorbance, non-linear least-squares regression) [nM] | Spleen weight ratio ([2]; HSALR mice, 9.2 mg/kg (mean) i.v. x3, day 45, bodyweight-normalized, mean ± sd, n = 5) | Weight ([2]; HSALR mice, 9.2 mg/kg (mean) i.v. x3, body weight, mean ± sd, n = 5)
6aKC-23b (antisense GGUAAUCCCUGGCAAUGUGAU; all phosphorodiamidate morpholino (PMO), T or U not given here; Pip6aKC peptide conjugated) | 1711.00 | 39.84 ± 3,561 g | 15.22% and 18.35% and 23.17% and 29.03% and 31.54% | 24.44% and 30.63% and 35.11% and 37.69% and 28.33% | 1.13 | – | – | – | – | – | – | – | – | – | – | –
6aKC-218 (antisense ACAUGGUUAGAUCAAGCACAA; all phosphorodiamidate morpholino (PMO), T or U not given here; Pip6aKC peptide conjugated) | 1809.00 | 39,02 ± 1,460 g | 28.37% and 38.26% and 18.26% and 24.01% and 28.56% | 33.68% and 24.84% and 25.74% and 41.25% and 27.67% | – | 1.02 | – | – | – | – | – | – | – | – | – | –
9b2-23b (antisense GGUAAUCCCUGGCAAUGUGAU; all phosphorodiamidate morpholino (PMO), T or U not given here; Pip9b2 peptide conjugated) | 88.00 | 32,78 ± 4,285 g | 26.85% and 32.69% and 33.28% and 26.86% and 11.37% | 0.61% | 1.46 | 1.46 | 28.7 | 29.2 | 28.6 | 29 | 29.1 | 29.4 | 29.1 | – | – | –
9b2-218 (antisense ACAUGGUUAGAUCAAGCACAA; all phosphorodiamidate morpholino (PMO), T or U not given here; Pip9b2 peptide conjugated) | 42.00 | 30,76 ± 2,745 g | 5.28% and 30.49% and 30.67% and 18.06% and 25.23% | 4.09% | – | 1.58 | – | – | – | – | – | – | – | – | – | –
9b2KC-23b (antisense GGUAAUCCCUGGCAAUGUGAU; all phosphorodiamidate morpholino (PMO), T or U not given here; Pip9b2KC peptide conjugated) | 256.00 | 32,22 ± 5,551 g | 18.78% and 26.33% and 30.11% and 15.58% and 38.58% | 29.66% and 22.47% and 19.41% and 27.99% and 26.94% | 1.36 | – | – | – | – | – | – | – | – | – | – | –
9b2KC-218 (antisense ACAUGGUUAGAUCAAGCACAA; all phosphorodiamidate morpholino (PMO), T or U not given here; Pip9b2KC peptide conjugated) | 88.26 | 31,28 ± 4,11 g | 32.73% and 22.25% and 31.59% and 22.57% and 29.41% | 2.19% and 27.06% and 25.84% and 30.53% and 22.73% | – | 1.44 | – | – | – | – | – | – | – | – | – | –
TCTTACCTCAGTTACAATTTA-Pip9b2 [Scramble, reference compound] | – | – | 12.37% and 14.67% and 42.81% and 26.86% and 36.37% | 28.91% and 16.71% and 28.33% and 34.05% and 38.65% | – | 1.00 | – | – | – | – | – | – | – | 217.00 | 0,0029 ± 0,0005 | 37,36 ± 2,928 g

From publication PMC10514136, “Peptide-conjugated antimiRs improve myotonic dystrophy type 1 phenotypes by promoting endogenous MBNL1 expression” (Molecular Therapy. Nucleic Acids, 2023)
